For 4 molecules, Kd, koff and kon results are on record in patent publication US20240150449A1.

Assay [1] has as its target recombinant in vitro phosphorylated full-length TDP-43 (TDP-43-MBP phosphorylated with casein kinase 1 delta) (human) (UniProt Q13148). The assay can be described thus: SPR Biacore 8K, 25 C, in vitro phosphorylated TDP-43 amine-coupled on CM5, IgG as analyte (avidity).
Assay [2] has the same target. As to the kind of experiment: SPR Biacore 8K, 25 C, in vitro phosphorylated TDP-43 amine-coupled on CM5, Fab as analyte.

B1: antibody 31F3 (human IgG) (antibody, V domains shown)
VH: QVQLEQSGAEVKRPGASVKVSCKASGYTFTGYYLHWVRQAPGQGLEWMGRINPGSGGTKYAQKFQGRVSMTRDTSISTAYMEVNRLRPDDTAVYYCARYQVYGERGRYMDVWGKGTTVTVSS
VL: QSALTQPASVSGSPGQSITISCTGTSSDVGTYDLVSWYQQHPGKAPKLIIYEDNKRPSGLSNRFSGSKSGNTASLTISGLQADDEADYYCCSYAAISTLIFGGGTKVTVL
By koff is commonly meant the first-order rate constant of dissociation. One may read the kon as the rate constant with which the complex forms. Consider B1, for which, in assay [1], the Kd is 0.01 nM, the koff was found to be 0.0003 s⁻¹ and the kon is 2.5e+07 M⁻¹ s⁻¹.

B2: 30E1 Fab (Fab, V domains shown)
VH: QVQLVQSGAEVKKPGASVKVSCKTSGYTFTDYYLHWVRQAPGQGLEWMGRINPNSGNTNYAQKFQGRVSVTRDTSISTAYMELSRLSSDDTAVYFCARVKIVVLRSTPTLYYFDYWGQGTLVTVSS
VL: QSALTQPASVSGSPGQSITISCTGTSSDVGTYDLVSWYQQHPGKAPKVMIYEGSKRPSGVSNRFSGSKSGNTASLTISGLQAEDEADYYCCSYAGTSTLVFGGGTKVTVL
On to B2, for which, in assay [2], the Kd came to 34 nM, the off-rate (koff) came out at 0.11 s⁻¹ and the kon worked out at 3.1e+06 M⁻¹ s⁻¹.

B3: 31F3 Fab (Fab, V domains shown)
VH: QVQLEQSGAEVKRPGASVKVSCKASGYTFTGYYLHWVRQAPGQGLEWMGRINPGSGGTKYAQKFQGRVSMTRDTSISTAYMEVNRLRPDDTAVYYCARYQVYGERGRYMDVWGKGTTVTVSS
VL: QSALTQPASVSGSPGQSITISCTGTSSDVGTYDLVSWYQQHPGKAPKLIIYEDNKRPSGLSNRFSGSKSGNTASLTISGLQADDEADYYCCSYAAISTLIFGGGTKVTVL
With B3, in assay [2], the Kd was 2.5 nM, the koff came out at 0.017 s⁻¹ and the on-rate (kon) amounted to 6.8e+06 M⁻¹ s⁻¹.

B4: antibody 30E1 (human IgG) (antibody, V domains shown)
VH: QVQLVQSGAEVKKPGASVKVSCKTSGYTFTDYYLHWVRQAPGQGLEWMGRINPNSGNTNYAQKFQGRVSVTRDTSISTAYMELSRLSSDDTAVYFCARVKIVVLRSTPTLYYFDYWGQGTLVTVSS
VL: QSALTQPASVSGSPGQSITISCTGTSSDVGTYDLVSWYQQHPGKAPKVMIYEGSKRPSGVSNRFSGSKSGNTASLTISGLQAEDEADYYCCSYAGTSTLVFGGGTKVTVL
As to B4, in assay [1], the Kd turned out to be 0.02 nM, the off-rate (koff) turned out to be 0.00061 s⁻¹ and the kon amounted to 3e+07 M⁻¹ s⁻¹.
